Measured values: US20250000946A1 (WUXI BIOLOGICS IRELAND, published 2025)
Positions count from the first letter of the chain named.

T1: Human IL-2Rβ/γ (intermediate affinity IL-2 receptor) (human, UniProt P14784 27-551; P31785 23-369)
T1 sequence (looked up) 1: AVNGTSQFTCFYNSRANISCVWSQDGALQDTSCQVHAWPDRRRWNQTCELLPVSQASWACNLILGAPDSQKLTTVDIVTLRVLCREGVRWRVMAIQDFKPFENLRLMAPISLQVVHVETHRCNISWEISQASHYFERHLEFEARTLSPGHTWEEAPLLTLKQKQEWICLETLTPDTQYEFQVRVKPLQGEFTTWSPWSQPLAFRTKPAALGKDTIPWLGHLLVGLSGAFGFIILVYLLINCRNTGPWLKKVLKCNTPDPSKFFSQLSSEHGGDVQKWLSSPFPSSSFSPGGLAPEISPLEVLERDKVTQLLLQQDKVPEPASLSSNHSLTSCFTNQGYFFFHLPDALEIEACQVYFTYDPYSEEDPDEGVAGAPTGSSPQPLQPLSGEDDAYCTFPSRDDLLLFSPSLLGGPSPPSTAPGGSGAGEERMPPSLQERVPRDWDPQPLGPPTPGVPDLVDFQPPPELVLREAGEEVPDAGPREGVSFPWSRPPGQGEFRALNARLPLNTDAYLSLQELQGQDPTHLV
T1 sequence (looked up) 2: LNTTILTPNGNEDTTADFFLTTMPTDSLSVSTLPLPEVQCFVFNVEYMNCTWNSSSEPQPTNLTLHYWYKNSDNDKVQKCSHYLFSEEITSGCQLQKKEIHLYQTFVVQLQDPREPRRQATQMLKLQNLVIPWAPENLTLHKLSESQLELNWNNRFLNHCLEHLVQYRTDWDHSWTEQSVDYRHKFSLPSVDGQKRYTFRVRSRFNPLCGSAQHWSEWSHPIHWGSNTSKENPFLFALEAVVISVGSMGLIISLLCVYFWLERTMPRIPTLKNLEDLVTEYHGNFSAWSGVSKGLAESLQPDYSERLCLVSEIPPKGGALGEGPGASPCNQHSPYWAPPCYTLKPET

T2: Human IL-2Rα/β/γ complex (high affinity IL-2 receptor) (human, UniProt P01589 22-272; P14784 27-551; P31785 23-369)
T2 sequence (looked up) 1: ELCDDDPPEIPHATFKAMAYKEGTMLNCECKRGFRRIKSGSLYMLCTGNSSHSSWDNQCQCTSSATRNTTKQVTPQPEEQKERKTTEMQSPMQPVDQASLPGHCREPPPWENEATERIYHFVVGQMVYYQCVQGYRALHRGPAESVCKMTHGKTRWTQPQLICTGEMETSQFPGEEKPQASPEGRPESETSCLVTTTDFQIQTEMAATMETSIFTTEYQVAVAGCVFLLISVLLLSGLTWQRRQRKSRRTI
T2 sequence (looked up) 2: T1 sequence (looked up) 1
T2 sequence (looked up) 3: T1 sequence (looked up) 2

B1: W3XX115-T2U0.E44-9.uIgG4V1 (Fc fusion)
chain: APTSSSTKKTQLQLEHLLLDLQMILNGINNYKNPKLTRMLTFKFYMPKKATELKHLQCLEEELKPLEEVLNLAQSKNFHLRPRDLISNINVIVLELKGSETTFMCEYADETATIVEFLNRWITFCQESKYGPPCPPCPAPEFLGGPSVFLFPPKPKDTLMISRTPEVTCVVVDVSQEDPEVQFNWYVDGVEVHNAKTKPREEQFNSTYRVVSVLTVLHQDWLNGKEYKCKVSNKGLPSSIEKTISKAKGQPREPQVYTLPPCQEEMTKNQVSLWCLVKGFYPSDIAVEWESNGQPENNYKTTPPVLDSDGSFFLYSRLTVDKSRWQEGNVFSCSVMHEALHNHYTQKSLSLSLG
heavy: EIQLQQSGPELVKPGASVKVSCKASGYSFTDYNMYWVKQSHGESLEWIGYIDPYNGGTRYNQKFKGKATLTVDKSSSTAFMHLNSLTSEDSAVYYCARNGHWDGAWFAYWGQGTLVTVSAASTKGPSVFPLAPCSRSTSESTAALGCLVKDYFPEPVTVSWNSGALTSGVHTFPAVLQSSGLYSLSSVVTVPSSSLGTKTYTCNVDHKPSNTKVDKRVESKYGPPCPPCPAPEFLGGPSVFLFPPKPKDTLMISRTPEVTCVVVDVSQEDPEVQFNWYVDGVEVHNAKTKPREEQFNSTYRVVSVLTVLHQDWLNGKEYKCKVSNKGLPSSIEKTISKAKGQPREPQVCTLPPSQEEMTKNQVSLSCAVKGFYPSDIAVEWESNGQPENNYKTTPPVLDSDGSFFLVSRLTVDKSRWQEGNVFSCSVMHEALHNHYTQKSLSLSLG
light: DIQMNQSPSSLSASLGDTITITCHASQNINVWLSWYQQKPGNIPKLLIYKASNLHTGVPSRFSGSRSGTGFTLTISSLQPEDIATYYCHQGQSYPFTFGSGTKLEIKRTVAAPSVFIFPPSDEQLKSGTASVVCLLNNFYPREAKVQWKVDNALQSGNSQESVTEQDSKDSTYSLSSTLTLSKADYEKHKVYACEVTHQGLSSPVTKSFNRGEC
notes: IL-2 with C-terminal 7 aa (SIISTLT) deleted; E44 format, IgG4
B2: W3XX115-T2U0.E44-7.uIgG4V1 (Fc fusion)
chain: APTSSSTKKTQLQLEHLLLDLQMILNGINNYKNPKLTRMLTFKFYMPKKATELKHLQCLEEELKPLEEVLNLAQSKNFHLRPRDLISNINVIVLELKGSETTFMCEYADETATIVEFLNRWITFCQSIESKYGPPCPPCPAPEFLGGPSVFLFPPKPKDTLMISRTPEVTCVVVDVSQEDPEVQFNWYVDGVEVHNAKTKPREEQFNSTYRVVSVLTVLHQDWLNGKEYKCKVSNKGLPSSIEKTISKAKGQPREPQVYTLPPCQEEMTKNQVSLWCLVKGFYPSDIAVEWESNGQPENNYKTTPPVLDSDGSFFLYSRLTVDKSRWQEGNVFSCSVMHEALHNHYTQKSLSLSLG
heavy: B1 heavy
light: B1 light
notes: IL-2 with C-terminal 5 aa (ISTLT) deleted; E44 format, IgG4
B3: W3XX115-T2U0.E44-5.uIgG4V1 (Fc fusion)
chain: APTSSSTKKTQLQLEHLLLDLQMILNGINNYKNPKLTRMLTFKFYMPKKATELKHLQCLEEELKPLEEVLNLAQSKNFHLRPRDLISNINVIVLELKGSETTFMCEYADETATIVEFLNRWITFCQSIISESKYGPPCPPCPAPEFLGGPSVFLFPPKPKDTLMISRTPEVTCVVVDVSQEDPEVQFNWYVDGVEVHNAKTKPREEQFNSTYRVVSVLTVLHQDWLNGKEYKCKVSNKGLPSSIEKTISKAKGQPREPQVYTLPPCQEEMTKNQVSLWCLVKGFYPSDIAVEWESNGQPENNYKTTPPVLDSDGSFFLYSRLTVDKSRWQEGNVFSCSVMHEALHNHYTQKSLSLSLG
heavy: B1 heavy
light: B1 light
notes: IL-2 with C-terminal 3 aa (TLT) deleted; E44 format, IgG4
B4: W3XX115-T2U0.E44-31.uIgG4V322 (Fc fusion)
chain: APTSSSTKKTQLQLEHLLLDLQMILNGINNYKNPKLTRMLTVKFYMPKKATELKHLQCLEEELKPLEEVLNLAQSKNFHLRPRDLISNINVIVLELKGSETTFMCEYADETATIVEFLNRWITFCQSILESKYGPPCPPCPAPEAAGGPSVFLFPPKPKDTLMISRTPEVTCVVVDVSQEDPEVQFNWYVDGVEVHNAKTKPREEQFNSTYRVVSVLTVLHQDWLNGKEYKCKVSNKGLPSSIEKTISKAKGQPREPQVYTLPPCQEEMTKNQVSLWCLVKGFYPSDIAVEWESNGQPENNYKTTPPVLDSDGSFFLYSRLTVDKSRWQEGNVFSCSVMHEALHNHYTQKSLSLSLG
heavy: B1 heavy with F234A, L235A
light: B1 light
B5: W3XX115-T2U0.E44-32.uIgG4V322 (Fc fusion)
chain: B4 chain with V42I
heavy: B1 heavy with F234A, L235A
light: B1 light

target: T1, Human IL-2Rβ/γ (intermediate affinity …); test: cell-based or functional assay

In order of rising “Potency in human CD8+ T EC50” value:
1. B3  18 nM
2. B1  96.5 nM
3. B2  5110 nM

In order of falling “Potency reduction (CD8+ T)” value:
1. B2  535 fold
2. B1  10.1 fold
3. B3  1.89 fold

target: T2, Human IL-2Rα/β/γ complex (high affinity …); test: cell-based or functional assay

In order of rising “Potency in human Treg EC50” value:
1. B1  1.44 nM
2. B3  4.62 nM
3. B2  36.4 nM

In order of rising “Potency reduction (Treg)” value:
1. B1  55.6 fold
2. B3  179 fold
3. B2  1400 fold

target: T2, Human IL-2Rα/β/γ complex (high affinity …); test: FACS, NK92 cells; EC50 fold vs T2U0.E44-1
Experimental: (§1) Human cutaneous T cell lymphoma HH cells, malignant non-Hodgkin's lymphoma NK92 cells and cutaneous T cell lymphoma MJ20 cells were used for binding assay. They both constitutively express IL-2Rβ (CD122) and […] (CD132), and NK92 and MJ20 also expresses IL-2Rα (CD25). HH, NK92 and MJ20 cells were cultured following ATCC guidance, then transferred to a 96-plate for binding analysis. Cells were incubated with IL-2/Fc fusion proteins at the indicated concentrations for 30 min at 4° C. to avoid internalization. Binding was detected by 2nd antibody of PE-anti-human Fc at 4° C. for another 30 min. The median fluorescence intensity (MFI) on HH and NK92 cells was measured using FACS.

In order of rising Affinity reduction:
1. B1  1.55 fold
2. B3  2.63 fold
3. B2  94 fold

target: T2, Human IL-2Rα/β/γ complex (high affinity …); test: FACS, NK92 cells
Experimental: as §1

In order of falling EC50:
1. B2  ~515 nM
2. B3  14.5 nM
3. B1  8.52 nM

target: T1, Human IL-2Rβ/γ (intermediate affinity …); test: cell-based or functional assay; remark: another data set of the same source

In order of rising “Human CD8+ T Potency EC50 (STAT5 phosphorylation)” value:
1. B4  365 nM
2. B5  379 nM

In order of falling “Human CD8+ T Potency reduction” value:
1. B5  104 fold
2. B4  100 fold

target: T1, Human IL-2Rβ/γ (intermediate affinity …); test: FACS, HH cells
Experimental: as §1

In order of rising EC50:
1. B3  50.1 nM
2. B1  54.5 nM
3. B4  800 nM
4. B5  904 nM

target: T1, Human IL-2Rβ/γ (intermediate affinity …); test: FACS, HH cells; EC50 fold vs T2U0.E44-1
Experimental: as §1

In order of rising Affinity reduction:
1. B3  1.62 fold
2. B1  1.76 fold
3. B4  15.8 fold
4. B5  17.9 fold
